Test results: paper PMC3145977, “Thermostabilisation of an Agonist-Bound Conformation of the Human Adenosine A2A Receptor” (Journal of Molecular Biology, 2011)
Positions count from the first letter of the chain named. Names may count otherwise. “And” between values parts separate entries of the source, which are not always exact repeats. Equal values may be shown once. Read-outs that look alike come from different tables or passages of the source. Marks after values point to notes of the source that are not given here.

B1: GL0: A2AR point mutant L48A, renamed GL0 (protein, UniProt P29274 1-412, looked up, variant L48A)
Adenosine receptor A2a: MPIMGSSVYITVELAIAVLAILGNVLVCWAVWLNSNLQNVTNYFVVSAAAADIAVGVLAIPFAITISTGFCAACHGCLFIACFVLVLTQSSIFSLLAIAIDRYIAIRIPLRYNGLVTGTRAKGIIAICWVLSFAIGLTPMLGWNNCGQPKEGKNHSQGCGEGQVACLFEDVVPMNYMVYFNFFACVLVPLLLMLGVYLRIFLAARRQLKQMESQPLPGERARSTLQKEVHAAKSLAIIVGLFALCWLPLHIINCFTFFCPDCSHAPLWLMYLAIVLSHTNSVVNPFIYAYRIREFRQTFRKIIRSHVLRQQEPFKAAGTSARVLAAHGSDGEQVSLRLNGHPPGVWANGSAPHPERRPNGYALGLVSGGSAQESQGNTGLPDVELLSHELKGVCPEPPGLDDPLAQDGAGVS
B2: Q89A: A2AR point mutant Q89A (protein, UniProt P29274 1-412, looked up, variant Q89A)
Adenosine receptor A2a: B1 Adenosine receptor A2a with A48L, Q89A
B3: V57A: A2AR point mutant V57A (protein, UniProt P29274 1-412, looked up, variant V57A)
Adenosine receptor A2a: B1 Adenosine receptor A2a with A48L, V57A
B4: T65A: A2AR point mutant T65A (protein, UniProt P29274 1-412, looked up, variant T65A)
Adenosine receptor A2a: B1 Adenosine receptor A2a with A48L, T65A
B5: V282A: A2AR point mutant V282A (protein, UniProt P29274 1-412, looked up, variant V282A)
Adenosine receptor A2a: B1 Adenosine receptor A2a with A48L, V282A
B6: F79A: A2AR point mutant F79A (protein, UniProt P29274 1-412, looked up, variant F79A)
Adenosine receptor A2a: B1 Adenosine receptor A2a with A48L, F79A
B7: A50L: A2AR point mutant A50L (protein, UniProt P29274 1-412, looked up, variant A50L)
Adenosine receptor A2a: B1 Adenosine receptor A2a with A48L, A50L
B8: S47A: A2AR point mutant S47A (protein, UniProt P29274 1-412, looked up, variant S47A)
Adenosine receptor A2a: B1 Adenosine receptor A2a with S47A, A48L
B9: F242A: A2AR point mutant F242A (protein, UniProt P29274 1-412, looked up, variant F242A)
Adenosine receptor A2a: B1 Adenosine receptor A2a with A48L, F242A
B10: F83A: A2AR point mutant F83A (protein, UniProt P29274 1-412, looked up, variant F83A)
Adenosine receptor A2a: B1 Adenosine receptor A2a with A48L, F83A
B11: A236L: A2AR point mutant A236L (protein, UniProt P29274 1-412, looked up, variant A236L)
Adenosine receptor A2a: B1 Adenosine receptor A2a with A48L, A236L
B12: A54L: A2AR point mutant A54L (protein, UniProt P29274 1-412, looked up, variant A54L)
Adenosine receptor A2a: B1 Adenosine receptor A2a with A48L, A54L
B13: GL23: A2AR mutant L48A-Q89A-T65A (protein, UniProt P29274 1-412, looked up, variant L48A Q89A T65A)
Adenosine receptor A2a: B1 Adenosine receptor A2a with T65A, Q89A
B14: I238A: A2AR point mutant I238A (protein, UniProt P29274 1-412, looked up, variant I238A)
Adenosine receptor A2a: B1 Adenosine receptor A2a with A48L, I238A
B15: F62A: A2AR point mutant F62A (protein, UniProt P29274 1-412, looked up, variant F62A)
Adenosine receptor A2a: B1 Adenosine receptor A2a with A48L, F62A
B16: S90A: A2AR point mutant S90A (protein, UniProt P29274 1-412, looked up, variant S90A)
Adenosine receptor A2a: B1 Adenosine receptor A2a with A48L, S90A

Assays:
[^3H]NECA-bound A2AR [1] = target: T1, [^3H]NECA-bound A2AR (Homo sapiens, UniProt P29274); set-up: method as in PMID 18664584; details: solubilised in DM; cited from earlier work
T1 construct: The library of Ala/Leu scan mutants in the receptor A2aR-(2–316) was expressed from plasmid pRG/III-hs-MBP in E. coli strain DH5α; made in house; host or cells: Escherichia coli DH5α

[^3H]ZM241385-bound A2AR [2] = Thermostability assay of detergent-solubilised receptor with [3H]ZM241385 bound; assay type: physicochemical, human; details: for Binding of [^3H]ZM241385: at 4 °C, 100 nM radioligand
Description: (§1) An aliquot of E. coli cells (14 mL) was thawed on ice and resupended in 500 μL of buffer A [50 mM Tris–HCl (pH 7.4), 0.4 M NaCl, 250 μg/mL lysozyme (Sigma) and 1 mg/mL DNase I (Sigma), supplemented with complete ethylenediaminetetraacetic acid (EDTA)-free Protease inhibitor cocktail (Roche)] and incubated for 1 h at 4 °C. Samples were then sonicated for 1 min at 4 °C using a cup-horn sonicator. The receptors were solubilised by adding 1% DDM and incubated for 1 h at 4 °C. Insoluble material was removed by centrifugation (5 min, 13,000g, 4 °C). The solubilised receptors were partially purified with Ni-NTA agarose (Qiagen). Agarose beads (300 μL) pre-equilibrated in buffer A were added to 700 μL of solubilised receptor. […].
(§2) The sample was incubated for 45 min at 4 °C, then 30 min at the specified temperature and then 30 min at 4 °C. Receptor-bound and free radioligands were separated as previously described on mini gel-filtration columns.[26] Receptor-bound ligands were transferred to a 96-well plate (PerkinElmer) and mixed with 200 μL of Optiphase supermix (PerkinElmer). The bound ^3H-labeled ligand was determined using a 1450 Microbeta Trilux counter (1 min per sample).

[^3H]ZM241385-bound A2AR [3] = target: T2, [^3H]ZM241385-bound A2AR (Homo sapiens, UniProt P29274); test: as above; assay type: physicochemical; details: identical conditions; DDM
T2 construct: The library of Ala/Leu scan mutants in the receptor A2aR-(2–316) was expressed from plasmid pRG/III-hs-MBP in E. coli strain DH5α; made in house; host or cells: Escherichia coli DH5α
Description: as §1, §2

[^3H]NECA-bound A2AR [4] = Thermostability assay of detergent-solubilised receptor with [3H]NECA bound (ligand plus format); assay type: physicochemical, human; details: for Improvement in stability compared to WT based on t1/2 (decrease in rate of unfolding): from Fig. 2c
Description: as §1, with “[…]. After solubilisation in DDM, A2AR was bound to Ni^2+-NTA resin, washed to reduce the DDM concentration and then eluted (see Methods). […]. An” for “An”
as §2
(§3) For all the thermostabilisation studies carried out in our laboratory, the apparent Tm is the temperature for which 50% of the solubilised receptor remains folded after 30 min of incubation. The rate constant of the protein denaturation is a function of the temperature, and consequently, thermal denaturation of a protein can be compared to a chemical reaction for which the rate of the reaction is dependant on the temperature. Arrhenius established that any chemical reaction is temperature dependant. […]. The reference measurement representing the total binding activity of the sample A0 was considered to be measured at 4 °C. From the graphical representation t = Log10(t1/2) (Fig. 2c), we could extract a half-life for each construct at any temperature to define the improvement in stability of the various mutants compared to WT A2AR.

[5] = target: A2AR-GL26 (L48A-Q89A-T65A-A54L) (Homo sapiens, UniProt P29274, A54L/L48A/Q89A/T65A)
[^3H]NECA-bound A2AR [6] = target: T3, [^3H]NECA-bound A2AR (Homo sapiens, UniProt P29274, L48A/Q89A/T65A); test: Thermostability assay of detergent-solubilised receptor with [3H]NECA bound (ligand plus format); assay type: physicochemical; details: [3H]NECA bound
T3 construct: The library of Ala/Leu scan mutants in the receptor A2aR-(2–316) was expressed from plasmid pRG/III-hs-MBP in E. coli strain DH5α; made in house; host or cells: Escherichia coli DH5α
Description: as §1, with “[…]. After solubilisation in DDM, A2AR was bound to Ni^2+-NTA resin, washed to reduce the DDM concentration and then eluted (see Methods). […]. An” for “An”
as §2, §3

A2AR-GL26 (L48A-Q89A-T65A-A54L), sequence (P29274 whole entry L48A/A54L/T65A/Q89A): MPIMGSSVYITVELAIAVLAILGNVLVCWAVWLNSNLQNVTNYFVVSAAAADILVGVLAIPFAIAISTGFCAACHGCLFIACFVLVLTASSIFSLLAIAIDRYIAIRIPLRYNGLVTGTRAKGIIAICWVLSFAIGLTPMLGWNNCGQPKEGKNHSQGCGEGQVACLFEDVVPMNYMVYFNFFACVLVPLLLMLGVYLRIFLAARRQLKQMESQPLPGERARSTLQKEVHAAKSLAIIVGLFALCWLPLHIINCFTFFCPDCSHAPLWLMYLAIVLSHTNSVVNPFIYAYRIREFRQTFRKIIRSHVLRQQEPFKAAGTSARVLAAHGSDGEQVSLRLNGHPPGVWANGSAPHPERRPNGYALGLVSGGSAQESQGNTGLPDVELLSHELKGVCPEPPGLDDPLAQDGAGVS
T1 sequence (P29274 2-316): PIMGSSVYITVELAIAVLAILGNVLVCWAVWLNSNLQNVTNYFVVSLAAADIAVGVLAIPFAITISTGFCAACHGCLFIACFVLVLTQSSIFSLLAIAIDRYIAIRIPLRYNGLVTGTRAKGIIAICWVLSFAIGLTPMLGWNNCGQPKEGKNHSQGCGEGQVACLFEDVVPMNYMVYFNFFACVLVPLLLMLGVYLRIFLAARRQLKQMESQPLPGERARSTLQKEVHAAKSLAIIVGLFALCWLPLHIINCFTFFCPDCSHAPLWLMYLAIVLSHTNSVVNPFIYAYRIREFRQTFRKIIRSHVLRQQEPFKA
T2 sequence (P29274 2-316): as above
T3 sequence (P29274 2-316 L48A/T65A/Q89A): as the sequence (P29274 2-316) above, with L47A, T64A, Q88A counted along it

Molecule	Apparent Tm, Antagonist [^3H]ZM241385 ([^3H]ZM241385-bound A2AR [2])	ΔTm, Antagonist [^3H]ZM241385 ([^3H]ZM241385-bound A2AR [2])	also measured
WT A2AR: wild-type human adenosine A2A receptor [reference compound]			Apparent Tm in DM ([^3H]NECA-bound A2AR [1]): 23 °C; Apparent Tm, Antagonist [^3H]ZM241385 ([^3H]ZM241385-bound A2AR [2]; [3H]ZM241385 bound, DDM, 30 min heating, single thermostability curve): 32.0 ± 0.1 °C; Apparent Tm, Antagonist [^3H]ZM241385 ([^3H]ZM241385-bound A2AR [2]; [3H]ZM241385 bound, DDM, 30 min heating, single thermostability curve, listed as WT): 32 °C; Stability of [3H]ZM241385-bound versus [3H]NECA-bound A2AR ([^3H]ZM241385-bound A2AR [3]): 3.5 °C; Apparent Tm in DDM, Final values ([^3H]NECA-bound A2AR [4]; [3H]NECA bound, 0.025% DDM, replicate experiments): 28.6 ± 0.2 °C and 28.6 ± 0.2 (n = 8) °C; Apparent Tm, Agonist [^3H]NECA ([^3H]NECA-bound A2AR [4]; [3H]NECA bound, DDM, 30 min heating, single thermostability curve, estimated error ± 0.5 °C): 28.5 °C
Nc1nc2ccc(Cl)cc2c2nc(-c3ccco3)nn12 [CGS15943]			Reduction of binding affinity versus WT A2AR [5]: 320 fold
B1	0 ^b °C		Binding of [^3H]ZM241385 ([^3H]ZM241385-bound A2AR [2]): did not bind; Apparent Tm in DDM, Single measurement ([^3H]NECA-bound A2AR [4]): 42.5 °C; Improvement in stability (apparent Tm) of NECA-bound A2AR versus WT ([^3H]NECA-bound A2AR [4]; [3H]NECA bound, DDM): 13.6 °C; Improvement in stability compared to WT based on t1/2 (decrease in rate of unfolding) ([^3H]NECA-bound A2AR [4]; [3H]NECA bound, DDM): 49 fold
B2	26 °C	− 8 °C	
B3	38 °C	+ 6 °C	
B4	38 °C	+ 6 °C	
B5	33 °C	+ 1 °C	
B6			Binding of [^3H]ZM241385 ([^3H]ZM241385-bound A2AR [2]): did not bind
B7	38.5 °C	+ 6.5 °C	
B8	25.5 °C	− 6.5 °C	
B9			Binding of [^3H]ZM241385 ([^3H]ZM241385-bound A2AR [2]): did not bind
B10	16.5 °C	− 15.5 °C	
B11	38 °C	+ 6 °C	
B12	38 °C	+ 6 °C	
B13			Apparent Tm in DDM, Single measurement ([^3H]NECA-bound A2AR [4]): 50 °C; Improvement in stability compared to WT based on t1/2 (decrease in rate of unfolding) ([^3H]NECA-bound A2AR [4]; [3H]NECA bound, DDM): 226 fold; Improvement in stability compared to WT based on t1/2 (decrease in rate of unfolding) ([^3H]NECA-bound A2AR [4]; [3H]NECA bound, DDM, listed as A2AR-GL23): about 230 fold; Decrease in stability in DM compared with DDM ([^3H]NECA-bound A2AR [6]): 7.7 °C
B14	36 °C	+ 4 °C	
B15			Binding of [^3H]ZM241385 ([^3H]ZM241385-bound A2AR [2]): did not bind
B16	32 °C	0 °C	
